# In patent publication US20220175977A1 (SORICIMED BIOPHARMA, published 2022):
# Where no end group is shown, it is not given here.
# T1: TRPV6 (endogenous, in human cancer cell lines, tumour tissue and plasma) (human, UniProt Q9H1D0 1-765)
# T1 construct: whole, on cells; also called Transient Receptor Potential Vanilloid 6; TRPV6 channel
# T1 sequence (looked up): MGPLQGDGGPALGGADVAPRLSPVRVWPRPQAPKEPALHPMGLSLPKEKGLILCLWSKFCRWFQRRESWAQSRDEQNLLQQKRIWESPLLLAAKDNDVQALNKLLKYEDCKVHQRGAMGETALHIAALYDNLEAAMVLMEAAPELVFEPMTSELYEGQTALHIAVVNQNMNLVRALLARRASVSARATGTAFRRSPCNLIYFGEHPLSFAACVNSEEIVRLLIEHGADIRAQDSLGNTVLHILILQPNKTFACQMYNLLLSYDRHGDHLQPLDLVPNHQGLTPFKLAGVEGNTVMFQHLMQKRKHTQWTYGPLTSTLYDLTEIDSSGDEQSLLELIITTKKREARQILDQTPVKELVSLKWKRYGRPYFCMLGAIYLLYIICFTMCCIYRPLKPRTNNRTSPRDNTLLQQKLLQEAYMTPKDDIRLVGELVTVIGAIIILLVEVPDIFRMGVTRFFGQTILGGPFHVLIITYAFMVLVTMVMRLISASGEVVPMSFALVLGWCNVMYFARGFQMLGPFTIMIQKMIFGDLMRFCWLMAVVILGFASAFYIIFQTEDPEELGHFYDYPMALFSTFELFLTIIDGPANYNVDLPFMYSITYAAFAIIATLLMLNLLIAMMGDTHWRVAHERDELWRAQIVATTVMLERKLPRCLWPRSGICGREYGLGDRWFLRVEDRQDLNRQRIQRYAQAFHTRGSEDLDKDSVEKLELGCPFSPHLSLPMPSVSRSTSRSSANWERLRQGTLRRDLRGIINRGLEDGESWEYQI
# Key:
# [1] = target: T1, TRPV6 (endogenous, in human cancer cell …); test: fluorescence microscopy, SKOV-3 cells, not transfected (FIG. 9 A1-A3)
# [2] = target: T1, TRPV6 (endogenous, in human cancer cell …); test: LNCaP model; method not described
Binder,binding result [1],Kd [2] [nM]
EGKLSSNDTEGGLC(Cy5.5)KEFLHPSKVDLPR (also called SorC27-Cy5.5 compound; fluorescently labeled SorC27) [SorC27-cy5.5],binds,
EGKLSSNDTEGGLCKEFLHPSKVDLPR [SorC27],,140
KEFLHPSKVDLPR [SorC13],,100
